Reference: PMC6415414

Details: N-glycosylation at N74

In the case of “Candida antarctica lipase B (CaLB): Asn74Ala, S. cerevisiae MTP culture supernatant, pNPB assay”, the enzymatic_activity is reported as “no change, 94% relative hydrolytic activity”.
For “Candida antarctica lipase B (CaLB): Asn74Ser, S. cerevisiae MTP culture supernatant, pNPB assay”, the enzymatic_activity was “decreases”.
In the case of “Candida antarctica lipase B (CaLB): Asn74Ala (CaLB-degl and CaLB-degl-lid), residual activity after 10 min heat incubation”, the stability_or_folding is reported as “decreases, >50% activity lost at 48 °C and almost inactive at 58 °C, vs 42% relative activity at 58 °C for wt”.
In the case of “Candida antarctica lipase B (CaLB): Asn74Ala (CaLB-degl), ε-caprolactone polymerization in aqueous toluene”, the enzymatic_activity is reported as “increases, Free enzyme: Mn 1100 to 1900 Da, Coligo 13% to 29% (factor 1.7). Immobilized: Mn 5200 to 6700 Da, Coligo 86% to 91%”.
In the case of “Candida antarctica lipase B (CaLB): Asn74Ala (CaLB-degl), purified free enzyme, pNPB assay”, the enzymatic_activity is reported as “decreases, hydrolytic activity 10.49 to 7.57 µmol(min∙mg)−1”.
